Columns and labels:
SEC = biological target: the molecule itself; experiment: SEC
SeqAΔ(41-59)-A25R = biological target: T1, SeqAΔ(41-59)-A25R (Escherichia coli, UniProt P0AFY8 1-181, A25R;del41-59); experiment: EMSA
T1 sequence: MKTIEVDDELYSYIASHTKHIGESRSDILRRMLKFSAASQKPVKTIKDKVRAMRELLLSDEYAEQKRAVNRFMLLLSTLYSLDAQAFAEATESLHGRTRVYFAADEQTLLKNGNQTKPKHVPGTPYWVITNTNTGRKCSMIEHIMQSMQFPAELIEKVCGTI

B1: SeqAΔ(41–59)-A25R (natural protein, E. coli, UniProt P0AFY8 1-181, looked up)
chain: T1 sequence
For B1, the “stoichiometry N” value (SEC) was 2.

B2: hemimethylated tandem GATC duplex (crystallization oligonucleotide) (dsDNA)
DNA 1: GAGTCGATCGGCGGGATCCTTA
DNA 2: TCTAAGGATCCCGCCGATCGAC
modifications: N6-methyladenine at positions 7 and 16 of strand 1; strand 2 unmethylated
For B2, the Kd (SeqAΔ(41-59)-A25R) was about 90 nM.

B3: SeqA-A25R (natural protein, E. coli, UniProt P0AFY8 1-181, looked up)
chain: MKTIEVDDELYSYIASHTKHIGESRSDILRRMLKFSAASQPAAPVTKEVRVASPAIVEAKPVKTIKDKVRAMRELLLSDEYAEQKRAVNRFMLLLSTLYSLDAQAFAEATESLHGRTRVYFAADEQTLLKNGNQTKPKHVPGTPYWVITNTNTGRKCSMIEHIMQSMQFPAELIEKVCGTI
B3: binds (SEC).

Source: PMC2691817 (Nucleic Acids Research, 2009)
